These results are taken from patent US20220411514A1, “ANTI-GAL3 ANTIBODIES AND METHODS OF USE FOR INSULIN RESISTANCE” (TrueBinding, Inc., priority 2021, published 2022).

In one assay the target is T1, Human Gal3 peptides (Homo sapiens, UniProt P17931).
T1 construct: purchased LifeTein custom order
Nature of the assay: Gal3 peptide binding ELISA (Example 8). Particulars: antibody 5 μg/mL. In short, it runs like this: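 Reformatted hIgG4 (S228P) anti-Gal3 antibodies were tested at 5 μg/mL for 1 h at room temperature against immobilised human Gal3 peptides (≥100 μg/mL coating) or protein (1 μg/mL coating) on BSA-blocked plates. Bound antibody read by peroxidase goat anti-human IgG with TMB at 450 nm.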
(In an ELISA, binding on a coated surface is turned into a signal by an enzyme label.)

A further assay deals with T2, hGal3 peptide (Homo sapiens, UniProt P17931).
T2 construct: a library of 24 amino acid peptides representing portions of Gal3
Nature of the assay: Gal3 peptide library binding ELISA (Example 2). As for the experimental part: To identify the epitopes to which Gal3 antibodies with and without Gal3-INSR blocking activity bound, a library of 24 amino acid peptides representing portions of Gal3, depicted in FIG. 18, was produced and the ability of each peptide to bind Gal3 antibodies was evaluated by ELISA. At least 2 μg/ml of hGal3 peptide in 50 μl of PBS or 0.1 μg/ml of full-length human Gal3 protein (GenScript) and human Galectin-3 protein (Acro Biosystems, GA3-H5129) were diluted in PBS (Corning, 21-030-CM) to concentrations of at least 2 μg/ml or 0.1 μg/ml, respectively, and added to the wells of a 96-well ELISA plate (Thermo Fisher, 44-2404-21). After incubating the plate at 4° C. overnight, the plate was washed three times with PBST (PBS with 0.05% Tween 20 [VWR, 0777]). The plate was then blocked for an hour with 2% BSA (EMD Millipore, 126609) in PBST at room temperature with gentle rocking. Thereafter, the 2% BSA in PBST was discarded and human Galectin-3 hybridoma supernatants or antibodies were diluted in 2% BSA in PBST to concentrations of at least 0.1 μg/ml and added to the wells. The plate was incubated for an hour at room temperature with gentle rocking and then washed three times with PBST. Afterwards, Goat Anti-Mouse IgG-HRP (Jackson ImmunoResearch, 115-036-1461) or Goat Anti-Rat IgG HRP (Abcam, ab205720) diluted in 2% BSA in PBST (1:4000) were added to the wells. The plate was incubated for 30 minutes to 1 hour at room temperature with gentle rocking and then washed three times with PBST. TMB substrate (Thermo Scientific, 34029) was then added to each well. The reaction was stopped with 1M HCl (JT Baker, 5620-02) and read using a plate reader (Molecular Devices) at absorbance of 450 nm.

Text for NOD/ShiLtJ mice: To assess the therapeutic potential of anti-GAL3 antibody in Type I diabetes, a mouse model of diabetes type I was used. Briefly, seven-weeks-old female NOD/ShiLtJ mice (Jackson lab (001976)) and control group animals NOR/LtJ (Jackson Lab (002050)) were housed in standard disposable cages with filter tops at room temperature with a 6:00-18:00 day-night cycle. Mice were allowed to rest for a week before initiating glucose monitoring. The antibody treatment was initiated when glucose levels reach 250-400 (mg/dL) for two consecutive days. To establish glucose levels, the blood samples were collected from tail vein of the experimental animals following housing in clean cages with water and no food for 4-6 hours. The collected samples were analyzed by HemoCue Glucose 201 Analyzer and cuvettes (Mercedes Scientific 110706). The animals were dosed twice a week (10 mg/kg) with anti-GAL3 antibodies (mTB001) or PBS control. […] At the end stage, the plasma samples were collected from symptomatic animals. C-peptide levels were determined by Alpco Mouse C-peptide ELISA kit (Alpco, 80-CPTMS-E01).

B1: 19B5.2E6: anti-Gal3 antibody (antibody)
heavy: QIQLVQSGPELKKPGETVKISCKASGYTFTTYAMSWVKQAPGKGLKWMGWINTYSGVPTYADDLKGRFAFSLETSASTAYLQINNLKNEDTATYFCARGPYAMDYWGQGTSVTVSSAKTTPPSVYPLAPVCGDTTGSSVTLGCLVKGYFPEPVTLTWNSGSLSSGVHTFPAVLQSDLYTLSSSVTVTSSTWPSQSITCNVAHPASSTKVDKKIEPRGPTIKPCPPCKCPAPNAAGGPSVFIFPPKIKDVLMISLSPIVTCVVVDVSEDDPDVQISWFVNNVEVHTAQTQTHREDYNSTLRVVSALPIQHQDWMSGKEFKCKVNNKDLGAPIERTISKPKGSVRAPQVYVLPPPEEEMTKKQVTLTCMVTDFMPEDIYVEWTNNGKTELNYKNTEPVLDSDGSYFMYSKLRVEKKNWVERNSYSCSVVHEGLHNHHTTKSFSRTPGK
light: DIQMTQTTSSLSASLGDRVTISCSASQGINNYLNWYQQKPDGTVKLLIYYASSLHSGVPSRFSGSGSGTDYSLTISNLEPEDIATYYCQQYSQVPYTFGSGTKLEIKRADVAPTVSIFPPSSEQLTSGGASVVCFLNNFYPKDINVKWKIDGSERQNGVLNSWTDQDSKDSTYSMSSTLTLTKDEYERHNSYTCEATHKTSTSPIVKSFNRNEC
modifications: 19B5.2E6 heavy chain peptide sequence; 19B5.2E6/23H9.2E4 light chain peptide sequence
notes: anti-Gal3 antibody
On to B1, for which, in the assay with Human Gal3 peptides, the “binding to Gal3 peptide 1 (SEQ ID NO: 3)” value is listed as “bound” and the “binding to Gal3 peptide 7 (SEQ ID NO: 9)” value was “bound”. In addition, in the assay with hGal3 peptide, the “binding to Gal3 peptide 1 (amino acids 1-20, SEQ ID NO: 3)” value is “bound” and the “binding to Gal3 peptide 7 (amino acids 61-80, SEQ ID NO: 9)” value is “bound”.

B2: 23H9.2E4: anti-Gal3 antibody (antibody)
heavy: B1 heavy
light: B1 light
modifications: 23H9.2E4 heavy chain peptide sequence; 19B5.2E6/23H9.2E4 light chain peptide sequence
notes: anti-Gal3 antibody
For B2, in the assay with Human Gal3 peptides, the “binding to Gal3 peptide 1 (SEQ ID NO: 3)” value is “bound”, the “binding to Gal3 peptide 6 (SEQ ID NO: 8)” value is reported as “bound”, the “binding to Gal3 peptide 7 (SEQ ID NO: 9)” value is recorded as “bound” and the “binding to Gal3 peptide 8 (SEQ ID NO: 10)” value is listed as “bound”. Besides, in the assay with hGal3 peptide, the “binding to Gal3 peptide 1 (amino acids 1-20, SEQ ID NO: 3)” value is “bound” and the “binding to Gal3 peptide 7 (amino acids 61-80, SEQ ID NO: 9)” value is “bound”.

B3: mTB001: anti-Gal3 antibody mTB001 (antibody)
heavy: QIQLVQSGPELKKPGETVKISCKASGYTFTNYGMNWVKQAPGKGLKWMGWINTNTGEPTYVEEFKGRFAFSLETSASTAYLQINNLKNEDTATYFCAPYDNFFAYWGQGTLVTVSAAKTTPPSVYPLAPVCGDTTGSSVTLGCLVKGYFPEPVTLTWNSGSLSSGVHTFPAVLQSDLYTLSSSVTVTSSTWPSQSITCNVAHPASSTKVDKKIEPRGPTIKPCPPCKCPAPNAAGGPSVFIFPPKIKDVLMISLSPIVTCVVVDVSEDDPDVQISWFVNNVEVHTAQTQTHREDYNSTLRVVSALPIQHQDWMSGKEFKCKVNNKDLGAPIERTISKPKGSVRAPQVYVLPPPEEEMTKKQVTLTCMVTDFMPEDIYVEWTNNGKTELNYKNTEPVLDSDGSYFMYSKLRVEKKNWVERNSYSCSVVHEGLHNHHTTKSFSRTPGK
light: DIVITQDELSNPVTSGESVSISCRSSKSLLYKDGKTYLNWFLQRPGQSPQLLIYLMSTHASGVSDRFSGSGSGTDFTLEISRVKAEDVGVYYCQQLVDYPLTFGAGTKLELKRADVAPTVSIFPPSSEQLTSGGASVVCFLNNFYPKDINVKWKIDGSERQNGVLNSWTDQDSKDSTYSMSSTLTLTKDEYERHNSYTCEATHKTSTSPIVKSFNRNEC
modifications: mTB001 heavy chain peptide sequence; mTB001 light chain peptide sequence
B3: in the assay with NOD/ShiLtJ mice (10 mg/kg twice a week), the blood glucose levels entry is “stabilizing the levels of blood glucose” and the survival entry was “prolonged survival”. Also, the “circulating C-peptide levels” value with NOD/ShiLtJ mice (end stage plasma) is “restoring C-peptide levels”.
